Target: human LDL (Low Density Lipoprotein) receptor (human) (UniProt P01130)
Experiment: competition by flow cytometry on A549 cells: unlabelled LDLs (varied, 16-fold excess) reduce the binding of 12G4 (30 µg/mL) to LDL-R

Chain of human LDL (Low Density Lipoprotein) receptor (human) (P01130 22-860): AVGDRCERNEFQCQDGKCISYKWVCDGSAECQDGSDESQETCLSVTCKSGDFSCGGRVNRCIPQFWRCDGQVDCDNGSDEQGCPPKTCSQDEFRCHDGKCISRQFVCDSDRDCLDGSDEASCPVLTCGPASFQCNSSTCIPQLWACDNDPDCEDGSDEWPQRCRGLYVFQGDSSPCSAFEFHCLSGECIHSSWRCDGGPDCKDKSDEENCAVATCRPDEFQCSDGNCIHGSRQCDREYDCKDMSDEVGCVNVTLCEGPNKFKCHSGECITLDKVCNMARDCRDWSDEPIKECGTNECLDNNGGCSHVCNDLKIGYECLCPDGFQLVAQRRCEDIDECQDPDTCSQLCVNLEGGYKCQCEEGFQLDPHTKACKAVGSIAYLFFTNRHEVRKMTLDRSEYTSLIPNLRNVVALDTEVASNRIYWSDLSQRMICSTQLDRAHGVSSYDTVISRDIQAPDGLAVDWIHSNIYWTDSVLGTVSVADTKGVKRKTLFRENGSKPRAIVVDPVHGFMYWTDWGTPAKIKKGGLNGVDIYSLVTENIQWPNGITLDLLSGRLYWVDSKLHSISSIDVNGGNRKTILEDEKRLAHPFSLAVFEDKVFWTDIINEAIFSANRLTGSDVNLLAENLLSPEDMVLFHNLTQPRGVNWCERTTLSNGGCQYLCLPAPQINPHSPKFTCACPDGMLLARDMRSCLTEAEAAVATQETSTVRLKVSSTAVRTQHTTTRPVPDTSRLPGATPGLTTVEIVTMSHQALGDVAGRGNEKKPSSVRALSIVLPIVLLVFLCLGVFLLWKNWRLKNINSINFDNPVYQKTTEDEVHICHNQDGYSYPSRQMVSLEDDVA

- reduction in the bond: 60%
Substance: LDLs (Low Density Lipoproteins) (from UniProt P04114 28-4563) (ligand)

From patent US20090175789A1
